For test [1], the target named is Nucleolysin TIA-1 (endogenous mouse TIA1) (mouse) (UniProt P52912). In words: TIA1 IP-MS, tau KO 1 cortex.
Test [2] shares this target. Description: TIA1 IP-MS, tau KO 2 cortex.
Test [3] shares this target. In words: TIA1 IP-MS, WT1 cortex.
Test [4] has the same target. In words: TIA1 IP-MS, WT3 cortex.
For test [5] the target is unchanged. In words: TIA1 IP-MS, WT2 cortex.
The target is the same in test [6]. In words: TIA1 IP-MS, tau KO 3 cortex.

Sequence of UniProt P52912 (P52912 whole entry): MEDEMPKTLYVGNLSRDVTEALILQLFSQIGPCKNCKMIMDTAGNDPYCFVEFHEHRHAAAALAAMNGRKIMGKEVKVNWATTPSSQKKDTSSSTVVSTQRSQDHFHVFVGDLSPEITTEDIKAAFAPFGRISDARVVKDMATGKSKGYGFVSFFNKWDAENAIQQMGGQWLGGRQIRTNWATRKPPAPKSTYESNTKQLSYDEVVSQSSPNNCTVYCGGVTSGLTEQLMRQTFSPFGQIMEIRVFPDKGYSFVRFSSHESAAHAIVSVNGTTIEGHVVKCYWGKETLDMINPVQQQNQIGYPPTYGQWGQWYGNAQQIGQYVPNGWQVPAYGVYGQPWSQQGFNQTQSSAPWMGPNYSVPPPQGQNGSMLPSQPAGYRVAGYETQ

On to “Glutamate dehydrogenase 1, mitochondrial (from UniProt P26443 54-558)”, for which the total ion current (normalized to TIA1 = 1000) turned out to be 0 in test [1]; 365 in test [2]; 0 in test [3]; 162 in test [4]; 402 in test [5]; 0 in test [6].

For the substance “Glutathione S-transferase Mu 1 (from UniProt P10649 2-218)”, the total ion current (normalized to TIA1 = 1000) in test [1] came to 0; in test [2], 91.1; in test [3], 0; in test [4], 57.4; in test [5], 286; in test [6], 0.

For the substance “Glutathione S-transferase P 1 (from UniProt P19157 2-210)”, the total ion current (normalized to TIA1 = 1000) in test [1] came to 0; in test [2], 0; in test [3], 31.6; in test [4], 0; in test [5], 0; in test [6] it was 0.

“Glycerol-3-phosphate dehydrogenase, mitochondrial (from UniProt Q64521 43-727)”: the total ion current (normalized to TIA1 = 1000) came to 18.8 in test [1]; 0 in test [2]; 3.01 in test [3]; 0 in test [4]; 0 in test [5]; 0 in test [6].

For “Guanine deaminase (from UniProt Q9R111 1-454)”, the total ion current (normalized to TIA1 = 1000) in test [1] was 0; in test [2], 75.3; in test [3], 0; in test [4], 68.5; in test [5] it was 0; in test [6], 0.

In the case of “Guanine nucleotide-binding protein G(z) subunit alpha (from UniProt O70443 2-355)”, the total ion current (normalized to TIA1 = 1000) in test [1] was found to be 0; in test [2] it was 0; in test [3], 0; in test [4], 0; in test [5], 59.4; in test [6], 0.

In the case of “Hemoglobin subunit alpha (from UniProt P01942 2-142)”, the total ion current (normalized to TIA1 = 1000) in test [1] was 0; in test [2], 0; in test [3], 0; in test [4] it was 0; in test [5] it was 69.1; in test [6], 0.

On to “Heterogeneous nuclear ribonucleoprotein R (from UniProt Q8VHM5 2-632)”, for which the total ion current (normalized to TIA1 = 1000) in test [1] is 26.7; in test [2], 69.2; in test [3] it was 34.6; in test [4], 48.5; in test [5] it was 374; in test [6], 0.

In the case of “Heterogeneous nuclear ribonucleoprotein U-like protein 2 (from UniProt Q00PI9 1-745)”, the total ion current (normalized to TIA1 = 1000) in test [1] amounted to 11.7; in test [2], 17; in test [3] it was 11.1; in test [4], 0; in test [5], 53.3; in test [6], 0.

Take “High mobility group protein B1 (from UniProt P63158 1-215)”: the total ion current (normalized to TIA1 = 1000) in test [1] was found to be 15.7; in test [2] it was 60.8; in test [3], 6.6; in test [4], 38; in test [5], 182; in test [6], 0.

For “Histone H1.4 (from UniProt P43274 2-219)”, the total ion current (normalized to TIA1 = 1000) is 0 in test [1]; 55.4 in test [2]; 0 in test [3]; 78.1 in test [4]; 56 in test [5]; 0 in test [6].

In the case of “Hypoxanthine-guanine phosphoribosyltransferase (from UniProt P00493 1-218)”, the total ion current (normalized to TIA1 = 1000) in test [1] was found to be 0; in test [2], 54.1; in test [3] it was 0; in test [4], 0; in test [5], 21; in test [6] it was 0.

For “Isocitrate dehydrogenase [NAD] subunit alpha, mitochondrial (from UniProt Q9D6R2 28-366)”, the total ion current (normalized to TIA1 = 1000) was 0 in test [1]; 155 in test [2]; 0 in test [3]; 138 in test [4]; 186 in test [5]; 0 in test [6].

In the case of “Isocitrate dehydrogenase [NAD] subunit, mitochondrial (from UniProt Q91VA7 34-384)”, the total ion current (normalized to TIA1 = 1000) in test [1] came to 0; in test [2], 29.9; in test [3], 0; in test [4] it was 0; in test [5], 110; in test [6], 0.

With “Isoform 2 of 4-aminobutyrate aminotransferase, mitochondrial (from UniProt P61922 29-444)”, the total ion current (normalized to TIA1 = 1000) in test [1] came to 0; in test [2], 112; in test [3] it was 0; in test [4], 79.4; in test [5], 272; in test [6], 0.

As for “Isoform 2 of AP-2 complex subunit beta (from UniProt Q9DBG3 2-951)”, the total ion current (normalized to TIA1 = 1000) in test [1] worked out at 0; in test [2], 102; in test [3] it was 0; in test [4] it was 67.8; in test [5] it was 105; in test [6], 0.

Take “Isoform 2 of ATP-dependent 6-phosphofructokinase, muscle type (from UniProt P47857 1-850)”: the total ion current (normalized to TIA1 = 1000) in test [1] turned out to be 0; in test [2], 75.8; in test [3], 0; in test [4] it was 36.3; in test [5], 62.9; in test [6], 0.

With “Isoform 2 of Alpha-adducin (from UniProt Q9QYC0 1-632)”, the total ion current (normalized to TIA1 = 1000) in test [1] was found to be 0; in test [2], 0; in test [3], 0; in test [4], 0; in test [5], 121; in test [6] it was 0.

In the case of “Isoform 2 of Beta-adducin (from UniProt Q9QYB8 1-562)”, the total ion current (normalized to TIA1 = 1000) in test [1] came to 0; in test [2], 32.6; in test [3] it was 0; in test [4], 0; in test [5], 346; in test [6], 0.

Turning to “Isoform 2 of C-terminal-binding protein 1 (from UniProt O88712 1-430)”, the total ion current (normalized to TIA1 = 1000) in test [1] is 0; in test [2], 26.6; in test [3], 0; in test [4], 49.3; in test [5], 65.7; in test [6], 0.

With “Isoform 2 of Clathrin light chain B (from UniProt Q6IRU5 1-211)”, the total ion current (normalized to TIA1 = 1000) in test [1] turned out to be 0; in test [2] it was 0; in test [3] it was 3.53; in test [4], 0; in test [5] it was 0; in test [6], 0.

For the substance “Isoform 2 of Cytosol aminopeptidase (from UniProt Q9CPY7 1-488)”, the total ion current (normalized to TIA1 = 1000) is 0 in test [1]; 28.4 in test [2]; 0 in test [3]; 0 in test [4]; 80.5 in test [5]; 0 in test [6].

(Values after patent US20190142860A1, “NUCLEIC ACID BASED TIA-1 INHIBITORS” (Aquinnah Pharmaceuticals, Inc., priority 2015, published 2019).)
